Measured values reported in US20210100839A1 (CELLECTIS, published 2021).

Target: T1, recombinant CD22 protein corresponding to the whole extracellular domain of CD22 (human; mouse, UniProt P20273 20-687)
T1 construct: range 20-687; also called full length recombinant CD22 protein; CD22 recombinant protein (full length)
Assay: flow cytometry, CAR T cells stained with recombinant full length CD22 protein
Procedure: CAR detection at the surface of T-cells is performed using a recombinant protein consisting on the extracellular domain of the human CD22 protein (whole protein, distal portion of CD22 or proximal portion of CD22) fused together with a murine IgG1 Fc fragment. Binding of this protein to the CAR molecule is detected with a PE-conjugated secondary antibody (Jackson Immunoresearch) targeting the mouse Fc portion of the protein, and analyzed by flow cytometry.
Then, CAR positive cells frequency (% of CAR-expressing cells over the total number of cells) was assessed by flow cytometry using a recombinant CD22 protein corresponding to the membrane proximal domain of CD22 or a recombinant CD22 protein corresponding to the whole extracellular domain of CD22 (FIG. 5).

| Binder | binding result |
| --- | --- |
| anti-CD22 CAR9 (prot CAR9) (other, Original clone number 9; Single-chain CAR on T cells; range counted on the printed copy; also called CAR9 7) QVQLQQSGPGLVQPSQTLSLTCVISGDSVSSNSATWNWIRQSPSRGLEWLGRTYYRSKWYNDYAVSVKSRITINPDTSKNQFSLQLNSVTPEDTAVYYCARDGDGGSYYDYYYYGMDVWGQGTTVTVSGGGGSGGGGSGGGGSDIQLTQSPSSLSTSVGDRVTITCRASQSISTYLNWYQQKPGKAPKLLIYAASNLQSGVPSRFSGSGSGTDFTLTISSLQPEDFATYFCQQSYTTPITFGQGTRLEIKTTTPAPRPPTPAPTIASQPLSLRPEACRPAAGGAVHTRGLDFACDIYIWAPLAGTCGVLLLSLVITLYCKRGRKKLLYIFKQPFMRPVQTTQEEDGCSCRFPEEEEGGCELRVKFSRSADAPAYQQGQNQLYNELNLGRREEYDVLDKRRGRDPEMGGKPRRKNPQEGLYNELQKDKMAEAYSEIGMKGERRRGKGHDGLYQGLSTATKDTYDALHMQALPPR | binds |
| anti-CD22 CAR2 (prot CAR2) (other, Single-chain CAR on T cells; range counted on the printed copy) QVQLQQSGPGLVKPSQTLSLTCAISGDSVSSNSAAWNWIRQSPSRGLEWLGRTYYRSKWYNDYAVSVKSRITINPDTSKNQFSLQLNSVTPEDTAVYYCARASMTGGYSYGDAFDIWGQGTLVTVSGGGGSGGGGSGGGGSAIRMTQSPSSLSASVGDRVTITCRASQSISSYLNWYQQKPGKAPKLLIYAASSLQSGVPSRFSGSGSGTDFSLTISSLQPEDSATYYCQQTYSTPLTFGQGTKVEIKTTTPAPRPPTPAPTIASQPLSLRPEACRPAAGGAVHTRGLDFACDIYIWAPLAGTCGVLLLSLVITLYCKRGRKKLLYIFKQPFMRPVQTTQEEDGCSCRFPEEEEGGCELRVKFSRSADAPAYQQGQNQLYNELNLGRREEYDVLDKRRGRDPEMGGKPRRKNPQEGLYNELQKDKMAEAYSEIGMKGERRRGKGHDGLYQGLSTATKDTYDALHMQALPPR | binds |
| anti-CD22 CAR8 (prot CAR8) (other, Original clone number 8; Single-chain CAR on T cells; range counted on the printed copy; also called CAR8 6) QVQLQQSGPGLVKPSQTLSLTCAISGDSVSSSSAAWNWIRQSPSRGLEWLGRTYYRSAWYNDYAVSVKSRITINPDTSKNQFSLQLNSVTPEDTAVYYCARESVLLDGMDVWGRGTTVTVSGGGGSGGGGSGGGGSAIRMTQSPSTLSASVGDRVTITCRASQSISTYLNWYQQKAGKAPRLLIHDASSLQSGVPSRFSGSGSGTDFTLTISSLQPEDFATYYCQQSYSTPLTFGGGTKVEIKTTTPAPRPPTPAPTIASQPLSLRPEACRPAAGGAVHTRGLDFACDIYIWAPLAGTCGVLLLSLVITLYCKRGRKKLLYIFKQPFMRPVQTTQEEDGCSCRFPEEEEGGCELRVKFSRSADAPAYQQGQNQLYNELNLGRREEYDVLDKRRGRDPEMGGKPRRKNPQEGLYNELQKDKMAEAYSEIGMKGERRRGKGHDGLYQGLSTATKDTYDALHMQALPPR | binds |
| anti-CD22 CAR3 (prot CAR3) (other, Single-chain CAR on T cells; range counted on the printed copy) QVQLQQSGPGLVEPSQTLSLTCAISGDSVSSDSVAWNWIRQSPSRGLEWLGRTYYRSTWYNDYAGSVKSRITINPDTSKNQFSLQLTSVTPEDTAVYYCTRSRHNTFRGMDVWGQGTTVTVSGGGGSGGGGSGGGGSDIVMTQSPSSLSASVGDRVTITCRASQTISSYLNWYQQKPGKAPKLLIYDASSLQSGVPSRFSGSGSGTDFTLTINSLQPEDFATYYCQQSYTTPITFGQGTRLEIKTTTPAPRPPTPAPTIASQPLSLRPEACRPAAGGAVHTRGLDFACDIYIWAPLAGTCGVLLLSLVITLYCKRGRKKLLYIFKQPFMRPVQTTQEEDGCSCRFPEEEEGGCELRVKFSRSADAPAYQQGQNQLYNELNLGRREEYDVLDKRRGRDPEMGGKPRRKNPQEGLYNELQKDKMAEAYSEIGMKGERRRGKGHDGLYQGLSTATKDTYDALHMQALPPR | binds |

Now from value to binder:

| binding result | Binder |
| --- | --- |
| binds | anti-CD22 CAR15 (prot CAR15) (other, Original clone number 15; Single-chain CAR on T cells; range counted on the printed copy; also called CAR15 10) QVQLVQSGAEVKKPGASVKVSCKASGYTFTSYYMHWVRQAPGQGLEWMGIINPSGGSTSYAQKFQGRVTMTRDTSTSTVYMELSSLRSEDTAVYYCAREDSGSGAFDIWGQGTLVTVSGGGGSGGGGSGGGGSEIVLTQSPLSLPVTPGEPASISCRSSRSLLSYHGYNYLDWYLQKPGQSPQLLIFVGSNRAPGVPDRFSGSGSGTDFTLNISRVEAEDVGVYYCMQSLQTPRTFGQGTKVEIKTTTPAPRPPTPAPTIASQPLSLRPEACRPAAGGAVHTRGLDFACDIYIWAPLAGTCGVLLLSLVITLYCKRGRKKLLYIFKQPFMRPVQTTQEEDGCSCRFPEEEEGGCELRVKFSRSADAPAYQQGQNQLYNELNLGRREEYDVLDKRRGRDPEMGGKPRRKNPQEGLYNELQKDKMAEAYSEIGMKGERRRGKGHDGLYQGLSTATKDTYDALHMQALPPR |
| binds | anti-CD22 CAR7 (prot CAR7) (other, Single-chain CAR on T cells; range counted on the printed copy; also called CAR7 5) QVQLQQSGPGLVEPSQTLSLTCAISGDSVSSDSVAWNWIRQSPSRGLEWLGRTYYRSTWYNDYAGSVKSRITINPDTSKNQFSLQLNSVTPEDTAVYYCARDRNGMDVWGQGTMVTVSGGGGSGGGGSGGGGSDIVMTQSPSSLSASVGDRVTITCRASQSISSYLNWYQQKPGKAPKLLIYDASNLETGVPSRFSGSGSGTDFTFTITSLQPEDFATYYCQQSYTTPLTFGGGTKVEIKTTTPAPRPPTPAPTIASQPLSLRPEACRPAAGGAVHTRGLDFACDIYIWAPLAGTCGVLLLSLVITLYCKRGRKKLLYIFKQPFMRPVQTTQEEDGCSCRFPEEEEGGCELRVKFSRSADAPAYQQGQNQLYNELNLGRREEYDVLDKRRGRDPEMGGKPRRKNPQEGLYNELQKDKMAEAYSEIGMKGERRRGKGHDGLYQGLSTATKDTYDALHMQALPPR |
